In one data set the test system is Nb.BsaI R442G R442G. The data set can be described thus: cleavage_in_vitro. The conditions noted are these: predominant nicking; about 8-fold lower than N441D/R442G.
The test system of data set [1] is Nb.BsaI N441D/R442G (A11) N441D/R442G. Kind of data set: cleavage_in_vitro. The conditions noted are these: bottom-strand nicking; estimated in cell extract.

Regarding “GGTCTCNNNNN (double strand) [BsaI site (in supercoiled pUC19)]”, the activity (units/g wet cells) was 100000 with Nb.BsaI R442G R442G and 800000 in data set [1].

The values are drawn from patent publication US20050136462.
